Test [1] deals with GIRK2 homotetrameric channel (mouse GIRK2A) (mouse).
The target is the same in test [2]. This is another data set of the same source.
Test [3] addresses GIRK1/2 heterotetrameric channel (GIRK1 with GIRK2) (not stated | mouse) (UniProt P63251).
Test [4] has as its target GIRK1/2HA heterotetrameric channel (GIRK1 with GIRK2HA) (not stated | mouse) (UniProt P63251).
The target in test [5] is GIRK2HA homotetrameric channel (HA-tagged GIRK2) (mouse).
Test [6] concerns the target GIRK1/2 heterotetrameric channel (GIRK1 with GIRK2) (not stated | mouse) (UniProt P63251). This is another data set of the same source.

A value given as a limit tells only on which side of the number the result lay.

“Gβ·YFPGγ (Gβ1 coexpressed with N-terminally YFP-labeled Gγ2) (from UniProt P62873 1-340; P59768 1-71) (complex)” gave a Kd, WTM model fit with fixed µ = 0.3 of single-channel Po against Gβ·YFPGγ surface density in test [1] of 17.3 µM. In addition, in test [2], the Kd, WTM model fit with fixed µ = 0.3 of whole-cell currents of GIRK2 or GIRK2HA against Gβ·YFPGγ surface density (mean of experiments) amounted to 31 µM and the Kd, WTM model fit with fixed µ = 0.44 of whole-cell currents of GIRK2 or GIRK2HA against Gβ·YFPGγ surface density (mean of experiments) amounted to 11 µM. The Kd, WTM model fit (µ = 0.3) of whole-cell currents against Gβ·YFPGγ surface density, mean of all experiments in test [3] was found to be 5.5 µM. In test [4], this substance displayed a Kd, WTM model fit (µ = 0.3) of whole-cell currents against Gβ·YFPGγ surface density in individual oocytes (Fig. 4b, experiment #4) of 9 µM. The substance further showed a Kd, WTM model fit (µ = 0.3) of whole-cell currents against Gβ·YFPGγ surface density in individual oocytes (Fig. 4b, experiment #4) in test [5] of 45 µM.
Regarding “Gβγ (Gβ1γ2) coexpressed in Xenopus oocytes (from UniProt P62873 1-340; P59768 1-71) (complex)”, the time constant of the single-exponential decay of channel activity (NPo) after excision of the patch into Gβγ-free bath solution with ATP and Na+ in test [6] is over 2 min.

The values are drawn from publication PMC12748987.
